From the supplement of paper PMC10567573

B1: PPEF2 (parent)
chain: DHSGFISLDEFRQTWKLFSSHMNI
B2: P2RY14 (parent)
chain: KKIFKSHLKSSRNSTSVKKKSSRN

Variants of: B1
Assay: protein stability index of a GFP-peptide fusion (GPS, HEK-293T) (PSI 1-6); higher = more stable
Settings: c terminus: a fixed tail appended
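Also: lentivirally expressed fusions sorted by FACS into six bins by GFP to DsRed ratio, PSI derived from sequencing read proportions per bin multiplied by bin number.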

Going from DHSGFYSLDEFRQTWKLFSSHMNI to DHSGFISLDEFRQTWKLFSQHMNI, the protein stability index falls from 1.89 to 1.83.

Going from DHSGFISLDEFRQTWKLFSYHMNI to DHSGFISLYEFRQTWKLFSSHMNI, the protein stability index falls from 2.47 to 1.51.

Going from DHSGFISLDEFYQTWKLFSSHMNI to DHSGFISLDEFWQTWKLFSSHMNI, the protein stability index falls from 2.69 to 2.39.

Going from DHSGFISLDEFQQTWKLFSSHMNI to DHSGFISLDEFGQTWKLFSSHMNI, the protein stability index rises from 1.38 to 2.79.

Going from DHSGFISLDEFSQTWKLFSSHMNI to DHSGFISLDEFRQTWKLFASHMNI, the protein stability index falls from 2.04 to 1.56.

Compared with DHSGFISLDEFRQTWKLFFSHMNI, DHSGFISLDEFRQTWKLFCSHMNI is lower in protein stability index: 2.32 for the first, 1.54 for the second.

Compared with DHSGFISIDEFRQTWKLFSSHMNI, DHSGFISWDEFRQTWKLFSSHMNI is lower in protein stability index: 2.24 for the first, 2.06 for the second.

Going from DHSGFISLDEERQTWKLFSSHMNI to DHSGFISLDETRQTWKLFSSHMNI, the protein stability index falls from 2.37 to 1.74.

Compared with DHSGFISLDEFRQTWILFSSHMNI, DHSGFISLDEFRQTWKLFSSPMNI is lower in protein stability index: 3.37 for the first, 2.11 for the second.

First: DHSGFISLDEFRQTWKLFSSCMNI
Second: DHSGFISLDEFRQTWKLFSSGMNI
The protein stability index of the first is higher: 2.9 for the first, 2.22 for the second.

Going from DHSGFISLDEFRQTWKSFSSHMNI to DHSGFISLDEFRQTWKHFSSHMNI, the protein stability index falls from 2 to 1.66.

Compared with DHSGFISLDEFRQTDKLFSSHMNI, DHSGFISLDEFRQTNKLFSSHMNI is lower in protein stability index: 2.3 for the first, 2.06 for the second.

Compared with DHSGFISLDEFRQTFKLFSSHMNI, DHVGFISLDEFRQTWKLFSSHMNI is lower in protein stability index: 2.07 for the first, 1.46 for the second.

Compared with DHAGFISLDEFRQTWKLFSSHMNI, DHDGFISLDEFRQTWKLFSSHMNI is higher in protein stability index: 1.92 for the first, 2 for the second.

First: DWSGFISLDEFRQTWKLFSSHMNI
Second: DTSGFISLDEFRQTWKLFSSHMNI
The protein stability index of the first is higher: 1.82 for the first, 1.72 for the second.

First: DHSGFISLDEFRQTWKLFSSHMND
Second: DHSGFISLDEFRQTWKLSSSHMNI
The protein stability index of the first is lower: 1.96 for the first, 2.14 for the second.

Compared with DHSGFISLDEFRQTWKLFSSHMEI, DHSGFISLDEFRQTWKLFSSHMCI is lower in protein stability index: 2.82 for the first, 2.72 for the second.

Compared with DHSGFISLDEFRQTWKLFSSHMVI, DHSGKISLDEFRQTWKLFSSHMNI is lower in protein stability index: 3.85 for the first, 1.52 for the second.

Compared with DHSGIISLDEFRQTWKLFSSHMNI, DHSGFISLDEFRQRWKLFSSHMNI is higher in protein stability index: 1.86 for the first, 2.38 for the second.

Going from DHSGFISLDIFRQTWKLFSSHMNI to DHSGFISLDEFRQTWKLFSSHCNI, the protein stability index rises from 1.58 to 2.98.

With DHSGFISLDEFRQTWKLFSSHDNI the protein stability index was 2.41.

Variants of: B2
Assay: as above
Settings: c terminus: a fixed tail appended

Going from KKIFKSHLKSSRNSTSVKDKSSRN to KKIFKSHLKSSRNSTSVKVKSSRN, the protein stability index rises from 3.6 to 4.31.

Going from KKIFKSHLKSSRNSTSVKQKSSRN to KKIFDSHLKSSRNSTSVKKKSSRN, the protein stability index rises from 4 to 4.16.

First: KKIFYSHLKSSRNSTSVKKKSSRN
Second: KKIFKSHLKSSRNSTMVKKKSSRN
The protein stability index of the first is lower: 3.48 for the first, 4.35 for the second.

Going from KKIFKSHLKSSRNSTGVKKKSSRN to KKIFKSHLKSSRNSTRVKKKSSRN, the protein stability index rises from 4.1 to 4.22.

Going from KKIFKSHLKSSRNSTTVKKKSSRN to KKIFKSHLKSSCNSTSVKKKSSRN, the protein stability index falls from 4.22 to 3.6.

Going from KKIFKSHLKSSFNSTSVKKKSSRN to KKITKSHLKSSRNSTSVKKKSSRN, the protein stability index rises from 3.83 to 4.

Compared with KKIWKSHLKSSRNSTSVKKKSSRN, KKIHKSHLKSSRNSTSVKKKSSRN is higher in protein stability index: 3.96 for the first, 4.07 for the second.

First: RKIFKSHLKSSRNSTSVKKKSSRN
Second: EKIFKSHLKSSRNSTSVKKKSSRN
The protein stability index of the first is lower: 3.42 for the first, 3.97 for the second.

First: TKIFKSHLKSSRNSTSVKKKSSRN
Second: SKIFKSHLKSSRNSTSVKKKSSRN
The protein stability index of the first is lower: 4 for the first, 4.26 for the second.

KKIFKSHLKSSRNSTSKKKKSSRN and KKIFKSHLKSSRNSTSLKKKSSRN are the same in protein stability index: 4.02 for the first, 4.02 for the second.

First: KKIFKSHLKVSRNSTSVKKKSSRN
Second: KKIFKSHLKMSRNSTSVKKKSSRN
The protein stability index of the first is lower: 3.81 for the first, 4.01 for the second.

First: KKIFKSHLKSSRNITSVKKKSSRN
Second: KKIFKSHLKSSRNQTSVKKKSSRN
The protein stability index of the first is higher: 4.14 for the first, 3.69 for the second.

First: KKIFKSHLKSSRNVTSVKKKSSRN
Second: KKIFKSHLKSSRNSTSVKKKPSRN
The protein stability index of the first is higher: 3.84 for the first, 3.72 for the second.

First: KKAFKSHLKSSRNSTSVKKKSSRN
Second: KKDFKSHLKSSRNSTSVKKKSSRN
The protein stability index of the first is lower: 4.18 for the first, 4.95 for the second.

Compared with KKQFKSHLKSSRNSTSVKKKSSRN, KKLFKSHLKSSRNSTSVKKKSSRN is higher in protein stability index: 4.14 for the first, 4.23 for the second.

First: KKIFKSHIKSSRNSTSVKKKSSRN
Second: KKIFKSHTKSSRNSTSVKKKSSRN
The protein stability index of the first is lower: 4.16 for the first, 4.3 for the second.

Going from KKIFKMHLKSSRNSTSVKKKSSRN to KKIFKLHLKSSRNSTSVKKKSSRN, the protein stability index falls from 3.82 to 3.18.

Going from KKIFKRHLKSSRNSTSVKKKSSRN to KKIFKSHLKSSRNSTSVKKKSSEN, the protein stability index falls from 4.49 to 4.18.

First: KKIFKSHLKSSRNSTSVCKKSSRN
Second: KKIFKSHLKSSRNSTSVGKKSSRN
The protein stability index of the first is lower: 3.34 for the first, 3.99 for the second.

Going from KKIFKSHLKSSRNSTSVRKKSSRN to KKIFKSHLKSSRNSTSVKKKSSRQ, the protein stability index rises from 3.88 to 4.23.

First: KKIFKSPLKSSRNSTSVKKKSSRN
Second: KKIFKSGLKSSRNSTSVKKKSSRN
The protein stability index of the first is lower: 3.74 for the first, 4.27 for the second.

Going from KKIFKSNLKSSRNSTSVKKKSSRN to KKIFKSHLKSSRSSTSVKKKSSRN, the protein stability index rises from 4 to 4.89.

First: KKIFKSHLKSSRISTSVKKKSSRN
Second: KKIFKSHLKSSRDSTSVKKKSSRN
The protein stability index of the first is higher: 4.15 for the first, 3.68 for the second.

Going from KKIFKSHLKSSRTSTSVKKKSSRN to KKIFKSHLKSSRRSTSVKKKSSRN, the protein stability index falls from 4.5 to 4.38.

Compared with KKIFKSHLKSSRNSTSVKKASSRN, KFIFKSHLKSSRNSTSVKKKSSRN is lower in protein stability index: 3.64 for the first, 3.63 for the second.

First: KKIFKSHLKSQRNSTSVKKKSSRN
Second: KKIFKSHLKSCRNSTSVKKKSSRN
The protein stability index of the first is higher: 4.31 for the first, 3.93 for the second.

For KKIFKSHLESSRNSTSVKKKSSRN, the protein stability index was 4.51.
